The results in this text go back to patent US20040005550A1 (Scripps Research, published 2004).

Assay [1] concerns the target T1, αIIbβ3 on human platelets (human, UniProt P08514 32-1039; P05106 27-788).
T1 construct: whole, on cells; also called platelet αIIbβ3
In words: flow cytometry on human platelets.

Assay [2] deals with T2, human αvβ3 integrin on cells (human, UniProt P06756 31-1048; P05106 27-788).
T2 construct: whole, on cells; also called vitronectin receptor; αvβ3-CHO cells
In words: flow cytometry binding isotherm, αvβ3-CHO cells, activating antibody AP5.
Description: (§1) Typically, cells were cultured overnight in low serum medium (e.g., 0.5% fetal bovine serum), resuspended in incubation buffer at 1-1.5×10⁷ cells/ml, and 4-6×10⁵ cells were incubated with one of these ligands for 30 min at room temperature in a final volume of 50 μl. […] After 30 min at room temperature, cells were washed and incubated with phycoerythrin-streptavidin (1:25 final dilution; Molecular Probes) for 20 min on ice. […] Cells were washed and resuspended in 0.5 ml incubation buffer containing 2 μg/ml propidium iodide (Sigma, St. Louis, Mo.). Ligand binding (FL1 channel) was analyzed immediately on the gated subset of live cells (propidium iodide-negative, FL3) that was strongly positive for αᵥβ₃ expression (FL2). Binding isotherms were subjected to non-linear, least squares regression analysis using an equation for one-site binding (Prism 2.0 software; GraphPad Software, San Diego, Calif.). Two-tailed P values for paired samples were obtained by Student's t test.

For assay [3], the target named is T2, human αvβ3 integrin on cells. In words: flow cytometry, JY cells, 100 nM phorbol myristate acetate for 15 min. Background: A flow cytometer gives signals particle by particle.
The target is the same in assay [4]. As to the kind of experiment: flow cytometry binding isotherm, αvβ3-CHO cells, no treatment.
Description: as §1
Assay [5] shares this target. As to the kind of experiment: cell-based or functional assay.
For assay [6] the target is unchanged. In words: flow cytometry, equilibrium binding, unstimulated αvβ3-CHO cells; reference aPB.

T2 sequence (P06756 31-1048, chain 1 of 2): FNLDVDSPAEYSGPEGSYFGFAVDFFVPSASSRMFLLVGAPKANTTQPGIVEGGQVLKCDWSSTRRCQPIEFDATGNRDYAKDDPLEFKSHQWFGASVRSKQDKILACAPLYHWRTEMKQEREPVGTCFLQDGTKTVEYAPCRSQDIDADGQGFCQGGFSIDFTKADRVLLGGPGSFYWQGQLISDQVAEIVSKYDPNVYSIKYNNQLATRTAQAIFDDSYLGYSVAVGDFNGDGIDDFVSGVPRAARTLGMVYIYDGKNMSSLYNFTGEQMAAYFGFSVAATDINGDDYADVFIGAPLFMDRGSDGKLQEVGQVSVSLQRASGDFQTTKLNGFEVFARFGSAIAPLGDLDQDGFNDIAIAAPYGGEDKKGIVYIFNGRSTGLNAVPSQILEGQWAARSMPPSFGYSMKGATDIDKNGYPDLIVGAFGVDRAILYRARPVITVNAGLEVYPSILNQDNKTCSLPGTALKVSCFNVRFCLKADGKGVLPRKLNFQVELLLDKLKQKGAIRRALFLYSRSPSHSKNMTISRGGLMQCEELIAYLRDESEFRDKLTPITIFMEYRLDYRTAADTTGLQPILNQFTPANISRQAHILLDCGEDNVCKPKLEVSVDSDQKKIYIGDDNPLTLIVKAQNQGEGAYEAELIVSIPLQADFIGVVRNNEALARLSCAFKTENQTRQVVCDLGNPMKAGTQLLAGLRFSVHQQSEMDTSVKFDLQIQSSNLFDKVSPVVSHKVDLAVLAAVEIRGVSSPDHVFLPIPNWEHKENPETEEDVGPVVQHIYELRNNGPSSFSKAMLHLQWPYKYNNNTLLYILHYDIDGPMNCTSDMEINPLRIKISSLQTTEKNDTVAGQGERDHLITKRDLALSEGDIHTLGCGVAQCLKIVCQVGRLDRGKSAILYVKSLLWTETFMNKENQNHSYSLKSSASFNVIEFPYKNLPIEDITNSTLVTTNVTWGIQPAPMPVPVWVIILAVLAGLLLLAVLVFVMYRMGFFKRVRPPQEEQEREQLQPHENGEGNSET
T2 sequence (P05106 27-788, chain 2 of 2): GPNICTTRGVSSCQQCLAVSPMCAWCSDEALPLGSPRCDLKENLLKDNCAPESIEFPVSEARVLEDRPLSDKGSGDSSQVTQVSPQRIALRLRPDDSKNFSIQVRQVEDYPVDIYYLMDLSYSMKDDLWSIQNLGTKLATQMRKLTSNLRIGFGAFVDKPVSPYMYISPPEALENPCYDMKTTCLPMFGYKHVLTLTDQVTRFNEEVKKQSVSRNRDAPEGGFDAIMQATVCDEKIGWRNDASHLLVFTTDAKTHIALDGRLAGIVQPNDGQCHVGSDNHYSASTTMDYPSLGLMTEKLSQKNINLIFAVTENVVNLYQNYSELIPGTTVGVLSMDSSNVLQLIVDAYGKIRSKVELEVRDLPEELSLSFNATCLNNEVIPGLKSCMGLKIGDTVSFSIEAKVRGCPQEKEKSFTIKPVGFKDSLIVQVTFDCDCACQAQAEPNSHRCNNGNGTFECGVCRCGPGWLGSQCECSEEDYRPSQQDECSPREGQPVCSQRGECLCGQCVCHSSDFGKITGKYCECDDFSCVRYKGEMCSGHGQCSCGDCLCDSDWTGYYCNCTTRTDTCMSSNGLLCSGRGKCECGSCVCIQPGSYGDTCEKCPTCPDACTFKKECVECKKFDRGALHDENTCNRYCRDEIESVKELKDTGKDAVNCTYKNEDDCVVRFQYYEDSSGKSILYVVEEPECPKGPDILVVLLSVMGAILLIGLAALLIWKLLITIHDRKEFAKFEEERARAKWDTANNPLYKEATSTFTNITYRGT
T1 sequence (P08514 32-1039, chain 1 of 2): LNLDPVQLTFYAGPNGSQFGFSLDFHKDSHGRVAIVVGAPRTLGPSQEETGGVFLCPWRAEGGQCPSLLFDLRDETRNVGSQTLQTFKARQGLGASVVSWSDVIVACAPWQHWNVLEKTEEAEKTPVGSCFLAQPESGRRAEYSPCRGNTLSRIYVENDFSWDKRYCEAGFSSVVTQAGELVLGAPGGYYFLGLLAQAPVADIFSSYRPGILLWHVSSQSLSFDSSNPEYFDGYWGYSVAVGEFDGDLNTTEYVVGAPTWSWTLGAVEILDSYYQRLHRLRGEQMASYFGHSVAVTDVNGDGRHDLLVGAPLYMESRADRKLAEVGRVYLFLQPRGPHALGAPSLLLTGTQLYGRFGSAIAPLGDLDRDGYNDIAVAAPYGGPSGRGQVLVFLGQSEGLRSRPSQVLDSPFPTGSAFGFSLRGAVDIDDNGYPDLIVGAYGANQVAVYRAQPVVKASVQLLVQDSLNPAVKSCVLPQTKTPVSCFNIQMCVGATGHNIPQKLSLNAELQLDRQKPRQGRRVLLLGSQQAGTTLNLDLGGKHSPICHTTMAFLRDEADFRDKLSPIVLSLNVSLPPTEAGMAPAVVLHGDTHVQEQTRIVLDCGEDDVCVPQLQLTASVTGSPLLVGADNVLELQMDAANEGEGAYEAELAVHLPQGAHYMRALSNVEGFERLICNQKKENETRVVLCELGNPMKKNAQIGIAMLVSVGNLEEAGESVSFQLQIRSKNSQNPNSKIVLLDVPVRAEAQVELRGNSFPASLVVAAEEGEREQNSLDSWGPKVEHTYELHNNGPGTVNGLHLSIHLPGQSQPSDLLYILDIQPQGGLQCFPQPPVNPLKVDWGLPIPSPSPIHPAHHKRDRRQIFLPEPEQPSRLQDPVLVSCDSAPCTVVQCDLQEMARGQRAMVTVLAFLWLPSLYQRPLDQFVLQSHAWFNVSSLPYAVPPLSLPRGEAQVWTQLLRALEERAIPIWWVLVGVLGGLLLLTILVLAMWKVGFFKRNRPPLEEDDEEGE
T1 sequence (P05106 27-788, chain 2 of 2): as the sequence (P05106 27-788, chain 2 of 2) above

B1: Recombinant penton base from adenovirus type 2 (ligand)
chain: MQRAAMYEEGPPPSYESVVSAAPVAAALGSPFDAPLDPPFVPPRYLRPTGGRNSIRYSELAPLFDTTRVYLVDNKSTDVASLNYQNDHSNFLTTVIQNNDYSPGEASTQTINLDDRSHWGGDLKTILHTNMPNVNEFMFTNKFKARVMVSRSLTKDKQVELKYEWVEFTLPEGNYSETMTIDLMNNAIVEHYLKVGRQNGVLESDIGVKFDTRNFRLGFDPVTGLVMPGVYTNEAFHPDIILLPGCGVDFTHSRLSNLLGIRKRQPFQEGFRITYDDLEGGNIPALLDVDAYQASLKDDTEQGGDGAGGGNNSGSGAEENSNAAAAAMQPVEDMNDHAIRGDTFATRAEEKRAEAEAAAEAAAPAAQPEVEKPQKKPVIKPLTEDSKKRSYNLISNDSTFTQYRSWYLAYNYGDPQTGIRSWTLLCTPDVTCGSEQVYWSLPDMMQDPVTFRSTSQISNFPVVGAELLPVHSKSFYNDQAVYSQLIRQFTSLTHVFNRFPENQILARPPAPTITTVSENVPALTDHGTLPLRNSIGGVQRVTITDARRRTCPYVYKALGIVSPRVLSSRTF
notes: also called Alexa-penton base; aPB
The term Kd denotes the free concentration of one partner at which half of the binding sites on the other are occupied at equilibrium, for simple one-to-one binding. Read a low Kd as a tighter complex. For the molecule B1, the binding result in assay [1] is “no binding”. Further, the Kd in assay [2] worked out at 160 nM; in assay [4] it was 550 nM. For the same molecule, the “fold increase in specific binding with phorbol myristate acetate against no agonist” value in assay [3] came to 2.7 fold. Besides, in assay [5], the “shift of the adhesion dose-response curve with AP5 against no additive” value came to 7 fold.

B2: Purified human fibrinogen (ligand)
chain 1: ADSGEGDFLAEGGGVRGPRVVERHQSACKDSDWPFCSDEDWNYKCPSGCRMKGLIDEVNQDFTNRINKLKNSLFEYQKNNKDSHSLTTNIMEILRGDFSSANNRDNTYNRVSEDLRSRIEVLKRKVIEKVQHIQLLQKNVRAQLVDMKRLEVDIDIKIRSCRGSCSRALAREVDLKDYEDQQKQLEQVIAKDLLPSRDRQHLPLIKMKPVPDLVPGNFKSQLQKVPPEWKALTDMPQMRMELERPGGNEITRGGSTSYGTGSETESPRNPSSAGSWNSGSSGPGSTGNRNPGSSGTGGTATWKPGSSGPGSTGSWNSGSSGTGSTGNQNPGSPRPGSTGTWNPGSSERGSAGHWTSESSVSGSTGQWHSESGSFRPDSPGSGNARPNNPDWGTFEEVSGNVSPGTRREYHTEKLVTSKGDKELRTGKEKVTSGSTTTTRRSCSKTVTKTVIGPDGHKEVTKEVVTSEDGSDCPEAMDLGTLSGIGTLDGFRHRHPDEAAFFDTASTGKTFPGFFSPMLGEFVSETESRGSESGIFTNTKESSSHHPGIAEFPSRGKSSSYSKQFTSSTSYNRGDSTFESKSYKMADEAGSEADHEGTHSTKRGHAKSRPV
chain 2: QGVNDNEEGFFSARGHRPLDKKREEAPSLRPAPPPISGGGYRARPAKAAATQKKVERKAPDAGGCLHADPDLGVLCPTGCQLQEALLQQERPIRNSVDELNNNVEAVSQTSSSSFQYMYLLKDLWQKRQKQVKDNENVVNEYSSELEKHQLYIDETVNSNIPTNLRVLRSILENLRSKIQKLESDVSAQMEYCRTPCTVSCNIPVVSGKECEEIIRKGGETSEMYLIQPDSSVKPYRVYCDMNTENGGWTVIQNRQDGSVDFGRKWDPYKQGFGNVATNTDGKNYCGLPGEYWLGNDKISQLTRMGPTELLIEMEDWKGDKVKAHYGGFTVQNEANKYQISVNKYRGTAGNALMDGASQLMGENRTMTIHNGMFFSTYDRDNDGWLTSDPRKQCSKEDGGGWWYNRCHAANPNGRYYWGGQYTWDMAKHGTDDGVVWMNWKGSWYSMRKMSMKIRPFFPQQ
chain 3: YVATRDNCCILDERFGSYCPTTCGIADFLSTYQTKVDKDLQSLEDILHQVENKTSEVKQLIKAIQLTYNPDESSKPNMIDAATLKSRKMLEEIMKYEASILTHDSSIRYLQEIYNSNNQKIVNLKEKVAQLEAQCQEPCKDTVQIHDITGKDCQDIANKGAKQSGLYFIKPLKANQQFLVYCEIDGSGNGWTVFQKRLDGSVDFKKNWIQYKEGFGHLSPTGTTEFWLGNEKIHLISTQSAIPYALRVELEDWNGRTSTADYAMFKVGPEADKYRLTYAYFAGGDAGDAFDGFDFGDDPSDKFFTSHNGMQFSTWDNDNDKFEGNCAEQDGSGWWMNKCHAGHLNGVYYQGGTYSKASTPNGYDNGIIWATWKTRWYSMKKTTMKIIPFNRLTIGEGQQHHLGGAKQAGDV
notes: also called FITC-fibrinogen
As for B2, the equilibrium dissociation constant (Kd) was 566 nM in assay [2] and 9200 nM in assay [4]. Moreover, the “fold lower affinity/avidity than for aPB” value in assay [6] was ~15 fold.
